Experimental data: IntAct's records for PubMed 21152186

B1: Matrix metalloproteinase-28 (Homo sapiens), Q9H239 (parent)
chain: MVARVGLLLRALQLLLWGHLDAQPAERGGQELRKEAEAFLEKYGYLNEQVPKAPTSTRFSDAIRAFQWVSQLPVSGVLDRATLRQMTRPRCGVTDTNSYAAWAERISDLFARHRTKMRRKKRFAKQGNKWYKQHLSYRLVNWPEHLPEPAVRGAVRAAFQLWSNVSALEFWEAPATGPADIRLTFFQGDHNDGLGNAFDGPGGALAHAFLPRRGEAHFDQDERWSLSRRRGRNLFVVLAHEIGHTLGLTHSPAPRALMAPYYKRLGRDALLSWDDVLAVQSLYGKPLGGSVAVQLPGKLFTDFETWDSYSPQGRRPETQGPKYCHSSFDAITVDRQQQLYIFKGSHFWEVAADGNVSEPRPLQERWVGLPPNIEAAAVSLNDGDFYFFKGGRCWRFRGPKPVWGLPQLCRAGGLPRHPDAALFFPPLRRLILFKGARYYVLARGGLQVEPYYPRSLQDWGGIPEEVSGALPRPDGSIIFFRDDRYWRLDQAKLQATTSGRWATELPWMGCWHANSGSALF

Variants of: B1
Settings: with furin_human FURIN

Row | effect of a mutation on the interaction | Variant
1 | with no effect | MVARVGLLLRALQLLLWGHLDAQPAERGGQELRKEAEAFLEKYGYLNEQVPKAPTSTRFSDAIRAFQWVSQLPVSGVLDRATLRQMTRPRCGVTDTNSYAAWAERISDLFARHRTKMRRKKRFAKQGNKWYKQHLSYRLVNWPEHLPEPAVRGAVRAAFQLWSNVSALEFWEAPATGPADIRLTFFQGDHNDGLGNAFDGPGGALAHAFLPRRGEAHFDQDERWSLSRRRGRNLFVVLAHAIGHTLGLTHSPAPRALMAPYYKRLGRDALLSWDDVLAVQSLYGKPLGGSVAVQLPGKLFTDFETWDSYSPQGRRPETQGPKYCHSSFDAITVDRQQQLYIFKGSHFWEVAADGNVSEPRPLQERWVGLPPNIEAAAVSLNDGDFYFFKGGRCWRFRGPKPVWGLPQLCRAGGLPRHPDAALFFPPLRRLILFKGARYYVLARGGLQVEPYYPRSLQDWGGIPEEVSGALPRPDGSIIFFRDDRYWRLDQAKLQATTSGRWATELPWMGCWHANSGSALF [E241A]
2 | with no effect | MVARVGLLLRALQLLLWGHLDAQPAERGGQELRKEAEAFLEKYGYLNEQVPKAPTSTRFSDAIRAFQWVSQLPVSGVLDRATLRQMTRPRCGVTDTNSYAAWAERISDLFARHRTKMRAAKRFAKQGNKWYKQHLSYRLVNWPEHLPEPAVRGAVRAAFQLWSNVSALEFWEAPATGPADIRLTFFQGDHNDGLGNAFDGPGGALAHAFLPRRGEAHFDQDERWSLSRRRGRNLFVVLAHEIGHTLGLTHSPAPRALMAPYYKRLGRDALLSWDDVLAVQSLYGKPLGGSVAVQLPGKLFTDFETWDSYSPQGRRPETQGPKYCHSSFDAITVDRQQQLYIFKGSHFWEVAADGNVSEPRPLQERWVGLPPNIEAAAVSLNDGDFYFFKGGRCWRFRGPKPVWGLPQLCRAGGLPRHPDAALFFPPLRRLILFKGARYYVLARGGLQVEPYYPRSLQDWGGIPEEVSGALPRPDGSIIFFRDDRYWRLDQAKLQATTSGRWATELPWMGCWHANSGSALF [R119A;K120A]

Continued, variant first:

Row | Variant | effect of a mutation on the interaction
3 | MVARVGLLLRALQLLLWGHLDAQPAERGGQELRKEAEAFLEKAAYLNEQVPKAPTSTRFSDAIRAFQWVSQLPVSGVLDRATLRQMTRPRCGVTDTNSYAAWAERISDLFARHRTKMRRKKRFAKQGNKWYKQHLSYRLVNWPEHLPEPAVRGAVRAAFQLWSNVSALEFWEAPATGPADIRLTFFQGDHNDGLGNAFDGPGGALAHAFLPRRGEAHFDQDERWSLSRRRGRNLFVVLAHEIGHTLGLTHSPAPRALMAPYYKRLGRDALLSWDDVLAVQSLYGKPLGGSVAVQLPGKLFTDFETWDSYSPQGRRPETQGPKYCHSSFDAITVDRQQQLYIFKGSHFWEVAADGNVSEPRPLQERWVGLPPNIEAAAVSLNDGDFYFFKGGRCWRFRGPKPVWGLPQLCRAGGLPRHPDAALFFPPLRRLILFKGARYYVLARGGLQVEPYYPRSLQDWGGIPEEVSGALPRPDGSIIFFRDDRYWRLDQAKLQATTSGRWATELPWMGCWHANSGSALF [Y43A;G44A] | with no effect
4 | MVARVGLLLRALQLLLWGHLDAQPAERGGQELRKEAEAFLEKYGAANEQVPKAPTSTRFSDAIRAFQWVSQLPVSGVLDRATLRQMTRPRCGVTDTNSYAAWAERISDLFARHRTKMRRKKRFAKQGNKWYKQHLSYRLVNWPEHLPEPAVRGAVRAAFQLWSNVSALEFWEAPATGPADIRLTFFQGDHNDGLGNAFDGPGGALAHAFLPRRGEAHFDQDERWSLSRRRGRNLFVVLAHEIGHTLGLTHSPAPRALMAPYYKRLGRDALLSWDDVLAVQSLYGKPLGGSVAVQLPGKLFTDFETWDSYSPQGRRPETQGPKYCHSSFDAITVDRQQQLYIFKGSHFWEVAADGNVSEPRPLQERWVGLPPNIEAAAVSLNDGDFYFFKGGRCWRFRGPKPVWGLPQLCRAGGLPRHPDAALFFPPLRRLILFKGARYYVLARGGLQVEPYYPRSLQDWGGIPEEVSGALPRPDGSIIFFRDDRYWRLDQAKLQATTSGRWATELPWMGCWHANSGSALF [Y45A;L46A] | disrupting interaction strength
